These results are taken from publication PMC3461508.

In this experiment the target is mitochondrial ribosome (S. cerevisiae (endogenous in W303)). Put plainly: co-sedimentation.

B1: Cbp3 (natural protein)
chain: ETAQDSPELLAKSSHLNSKPLDVSNKAPVKTAQNKIPLAHSKYESSKYELPKWKEALGELVIRAFHLDMDRVRAGPVAGSYYYKICKEQGLQYEDEPLSETAKYFYEDLKLPRTFSQWFQITVLHEWILFVRMRAMPFKYGRNYQQKLVDRTFSDIELRLFEEMKVNSGRIADQYLKDFNTQLRGAIFAYDEGFATDDGTLATAVWRNLFGGRKNIDMVHLESVVRYIYSQLYVLSRLSDREFATGKFKFVPPGVKVEKLTPKQEEELKAKTIAKYEALDKDPKTLPSERSRLSYTN
In turn, B1 gave a percent bound to the ribosome of 20%.

B2: Cbp6 (natural protein)
chain: MSSSQVVRDSAKKLVNLLEKYPKDRIHHLVSFRDVQIARFRRVAGLPNVDDKGKSIKEKKPSLDEIKSIINRTSGPLGLNKEMLTKIQNKMVDEKFTEESINEQIRALSTIMNNKFRNYYDIGDKLYKPAGNPQYYQRLINAVDGKKKESLFTAMRTVLFGK
For B2, the percent bound to the ribosome worked out at 20%.
